One block for each molecule: values may come before it.
Biological target: Gal4BD-TR4LBD (mouse) (UniProt P49117)
Assay: two-hybrid

UniProt P49117, sequence (P49117 178-477): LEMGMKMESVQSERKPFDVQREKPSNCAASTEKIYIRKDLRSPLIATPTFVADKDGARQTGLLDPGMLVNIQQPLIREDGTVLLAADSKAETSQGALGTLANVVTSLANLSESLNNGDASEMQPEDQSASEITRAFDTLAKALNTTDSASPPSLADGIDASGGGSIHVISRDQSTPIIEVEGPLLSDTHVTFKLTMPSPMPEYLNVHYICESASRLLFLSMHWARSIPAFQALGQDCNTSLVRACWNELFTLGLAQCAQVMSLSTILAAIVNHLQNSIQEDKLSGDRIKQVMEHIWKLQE

fold enhancement of the two-hybrid reporter with γ-linoleic acid: 12 fold
Molecule: VP16AD-PCAF (from UniProt Q92831 1-832) (natural protein)

fold enhancement of the two-hybrid reporter with γ-linoleic acid: 23 fold
B1: VP16AD-RIP140 (natural protein)
chain: MTHGEELGSDVHQDSIVLTYLEGLLMHQAAGGSGTAINKKSAGHKEEDQNFNLSGSAFPSCQSNGPTVSTQTYQGSGMLHLKKARLLQSSEDWNAAKRKRLSDSIVNLNVKKEALLAGMVDSVPKGKQDSTLLASLLQSFSSRLQTVALSQQIRQSLKEQGYALSHESLKVEKDLRCYGVASSHLKTLLKKSKTKDQKSGPTLPDVTPNLIRDSFVESSHPAVGQSGTKVMSEPLSCAARLQAVASMVEKRASPAASPKPSVACSQLALLLSSEAHLQQYSREHALKTQNAHQVASERLAAMARLQENGQKDVGSSQLSKGVSGHLNGQARALPASKLVANKNNAATFQSPMGVVPSSPKNTSYKNSLERNNLKQAANNSLLLHLLKSQTIPTPMNGHSQNERASSFESSTPTTIDEYSDNNPSFTDDSSGDESSYSNCVPIDLSCKHRIEKPEAERPVSLENLTQSLLNTWDPKIPGVDIKEDQDTSTNSKLNSHQKVTLLQLLLGHKSEETVERNASPQDIHSDGTKFSPQNYTRTSVIESPSTNRTTPVSTPPLYTASQAESPINLSQHSLVIKWNSPPYACSTPASKLTNTAPSHLMDLTKGKESQAEKPAPSEGAQNSATFSASKLLQNLAQCGLQSSGPGEEQRPCKQLLSGNPDKPLGLIDRLNSPLLSNKTNAAEESKAFSSQPAGPEPGLPGCEIENLLERRTVLQLLLGNSSKGKNEKKEKTPARDEAPQEHSERAANEQILMVKIKSEPCDDFQTHNTNLPLNHDAKSAPFLGVTPAIHRSTAALPVSEDFKSEPASPQDFSFSKNGLLSRLLRQNQESYPADEQDKSHRNSELPTLESKNICMVPKKRKLYTEPLENPFKKMKNTAVDTANHHSGPEVLYGSLLHQEELKFSRNELDYKYPAGHSSASDGDHRSWARESKSFNVLKQLLLSENCVRDLSPHRSDSVPDTKKKGHKNNAPGSKPEFGISSLNGLMYSSPQPGSCVTDHRTFSYPGMVKTPLSPPFPEHLGCVGSRPEPGLLNGCSVPGEKGPIKWVIADMDKNEYEKDSPRLTKTNPILYYMLQKGGGNSVTTQETQDKDIWREPASAESLSQVTVKEELLPAAETKASFFNLRSPYNSHMGNNASRPHSTNGEVYGLLGNALTIKKESE
